Measurements from patent publication US20140148396A1.

Target: EMMPRIN in mouse aortic endothelial cells (MAEC) (mouse) (UniProt P18572)
Assay: cell-based or functional assay

reduction of MMP-9 in mice compared to the IgG control: > 50%
Substance: anti-EMMPRIN antibody (rat-anti-mouse-EMMPRIN, OX114 clone)
